Results taken from the supplement of paper PMC9732359.
± gives the uncertainty stated by the source.

experiment: protein stability index of a GFP-peptide fusion (yeast GPS) (PSI 1-4); higher = more stable; sorted into four equal gates, so the index is relative within each strain; details: pdr5∆
In short: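 Plasmids isolated from each sorting gate were PCR-amplified and Illumina-sequenced, and barcodes assigned the reads to strains. The gates, four of equal size, were set by GFP/Cherry fluorescence ratio on mid-log cultures in leucine-free medium. These cultures were yeast carrying a pooled library of tiled 17-residue yeast protein peptides fused downstream of GFP on a plasmid that also expresses Cherry. The protein stability index is the sum of every gate's read frequency times its gate number.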

| Sequence | protein stability index |
| --- | --- |
| RMLSSILDINVSSSKNK [SWP82] | 2.9 ± 0.051 |
| RNDSTVNDSVISAPSME [BRN1] | 2.95 ± 0.083 |

same assay, conditions: san1∆

| Sequence | protein stability index |
| --- | --- |
| QSQPQEKFSEKMLKIWT [ECM29] | 2.9 ± 0.21 |
| QSSRVVSLSQLLFIVGQ [YCS4] | 1.83 ± 0.11 |
| QTQREKAPLQPNSERET [IRR1] | 3.06 ± 0.039 |
| QTRKEYNTSILEFRWLT [SIN4] | 1.83 ± 0.093 |
| QTSRGLFGNNNTNNINN [YGL172W/NUP49] | 3.13 ± 0.16 |
| QTYGETTAVDALQKGLK [RPC19] | 1.16 ± 0.29 |
| QVEYALEAIKQGSVTVG [PRE5] | 3.14 ± 0.17 |
| QVIKNEVCAKMPNIELY [SSN2] | 2.7 ± 0.074 |
| QVLFQGLIYSFNEENGE [POP1] | 2.77 ± 0.26 |
| QVLLDEEYKQLVKDRKF [RPO21] | 3.15 ± 0.14 |
| QVLMDINTLNGGSSDTA [GAL11] | 3.15 ± 0.061 |
| QWSRIVLQNVFKLVSTP [MED1] | 1.23 ± 0.08 |
| RAFQKQPHIFNNPKVKT [RPS11A] | 2.59 ± 0.044 |
| RAFTKKVSSASAAASES [RPL16B] | 2.16 ± 0.065 |
| RAGQRGYHSRTSINHKI [RPL3] | 3 ± 0.096 |
| RAGQRTRFKAVVVVGDS [RPS2] | 2.28 ± 0.088 |
| RAHGRINKYESSPSHIE [RPL17A] | 2.99 ± 0.08 |
| RALRIETGNFSWASEGI [RPS8A] | 3.11 ± 0.027 |
| RAQEEVKRIQSVPLVIG [RPT3] | 3.04 ± 0.11 |
| RCGRRSFHVQKKTCSSC [RPL37A] | 2.47 ± 0.048 |
| RDHEKDTYRTLMEEIES [YIL149C/MLP2] | 3.414 ± 0.031 |
| RDMTYSAPIYVDIEYTR [RET1] | 1.79 ± 0.14 |
| RDQGNDSLNDDLNKENK [YIL149C/MLP2] | 3.01 ± 0.15 |
| RDVRDQAAGGLSIRLTN [RPN8] | 2.89 ± 0.097 |
| RDYSKEILGINLANEQP [SIR4] | 3.07 ± 0.039 |

| Sequence | protein stability index |
| --- | --- |
| REIESLIAEETNNKKLL [SMC3] | 3.01 ± 0.11 |
| RELARIKKYASVVRVLV [RPL3] | 1.13 ± 0.18 |
| RELLNPRYTYHTIFSDV [YML031W/NDC1] | 2.71 ± 0.045 |
| RENNFRVASDTVHEMEE [SMC4] | 3.19 ± 0.13 |
| REQHIDTICQSIQEQIQ [SNF5] | 3.25 ± 0.053 |
| RFKNSVKWYHFDHNDKK [PRE7] | 2.69 ± 0.043 |
| RFKVVKVSGVSLLALWK [RPS23A] | 1.71 ± 0.14 |
| RFVIWTEAAFTKLDQVW [RPL4A] | 2.28 ± 0.24 |
| RGFFDILSLATEGCIGL [MCD1] | 2.52 ± 0.092 |
| RGGVKRISGLIYEEVRA [HHF1] | 3.15 ± 0.11 |
| RGKKGLKKKVVDPFTRK [RPS1B] | 3.35 ± 0.074 |
| RGNIKVMFATNRPNTLD [RPT1] | 3.02 ± 0.063 |
| RGRGRGRGRGRGRPPKA [SNF2] | 3.37 ± 0.041 |
| RGRPPKARNGLDYVRTP [SNF2] | 2.41 ± 0.13 |
| RGVDAGKGNTFEKVGSH [RPN14] | 3.67 ± 0.11 |
| RHLVNRGREEAASFKKL [PRE10] | 3 ± 0.084 |
| RHSGKVYPITLSTDATS [UBP6] | 2.74 ± 0.057 |
| RIHAKNFEAALFAKSSS [GAL11] | 2.74 ± 0.099 |
| RIKITANNNMNDELVEL [GRR1] | 2.33 ± 0.062 |
| RIMSTRCMMAAQYFYSG [DIS3] | 1.58 ± 0.079 |
| RIQLMNDFTTKLINIKK [MED1] | 2.84 ± 0.11 |
| RIVGSELIQKYLGDGPR [RPT2] | 3.33 ± 0.27 |
| RIYDREPTVRIQAVFCL [YCG1] | 1.61 ± 0.21 |
| RKINLFYLYMLVQKFGG [SWI1] | 1.16 ± 0.18 |
| RKLAVERAGHLLCDKAQ [PRE5] | 3.12 ± 0.072 |

| Sequence | protein stability index |
| --- | --- |
| RKNFKMGPLYQNFAEFM [IRR1] | 1.72 ± 0.078 |
| RKQIDETQVLVSTPEKW [BRR2] | 2.31 ± 0.055 |
| RKRHQRALKVRNAQAQR [RPS6A] | 2.73 ± 0.073 |
| RKWVIFITKHLPLLILE [NUT1] | 1.21 ± 0.1 |
| RLAEVNLKDLNNVKQMV [RPO21] | 2.9 ± 0.25 |
| RLDSYKVIEQPITSETA [RPL25] | 2.31 ± 0.079 |
| RLELPVDFQNDLKDILE [BRR2] | 2.78 ± 0.061 |
| RLERRINLTKVTQKDIC [CSI1] | 3.18 ± 0.065 |
| RLGDLGVIDDSFDVAIS [SMC4] | 1.23 ± 0.25 |
| RLGSKKLVEIIWNDVVY [YJL039C/NUP192] | 3.46 ± 0.082 |
| RLKDVEWVKLHRLLQRA [RMP1] | 3.24 ± 0.06 |
| RLKEKGSRVLIFSQMSR [ISW2] | 1.53 ± 0.11 |
| RLLSALGPRGVSITPGK [SRP21] | 3.29 ± 0.078 |
| RLNNVFVIGEQGKPYIS [RPS4A] | 3.1 ± 0.11 |
| RLPHQFRPIEIFTDFLP [RRP42] | 2.03 ± 0.078 |
| RLPVSEDTNTKPLFDFG [YOR098C/NUP1] | 1.93 ± 0.23 |
| RLTFKPWVVYLQILAML [YMR129W/POM152] | 1.1 ± 0.11 |
| RLTKQAFDWVLSNIEAQ [RPO21] | 3.19 ± 0.091 |
| RLYVKGKHLSYQRSKRV [RPL33A] | 1.67 ± 0.094 |
| RMAKYLNNTHVISSGPL [RPC53] | 2.74 ± 0.074 |
| RMERIKDHLLLEEEFVS [RPT2] | 2.09 ± 0.13 |
| RMLLNLCKSATTKMWPT [BRR2] | 1.7 ± 0.12 |
| RMLSSILDINVSSSKNK [SWP82] | 2.49 ± 0.059 |
| RNDSTVNDSVISAPSME [BRN1] | 2.78 ± 0.061 |

same assay, conditions: ubr1∆

| Sequence | protein stability index |
| --- | --- |
| QSQPQEKFSEKMLKIWT [ECM29] | 3.03 ± 0.2 |
| QSSRVVSLSQLLFIVGQ [YCS4] | 1.4 ± 0.054 |
| QTQREKAPLQPNSERET [IRR1] | 3.07 ± 0.054 |
| QTRKEYNTSILEFRWLT [SIN4] | 2.42 ± 0.098 |
| QTSRGLFGNNNTNNINN [YGL172W/NUP49] | 3.14 ± 0.16 |
| QTYGETTAVDALQKGLK [RPC19] | 1.14 ± 0.082 |
| QVEYALEAIKQGSVTVG [PRE5] | 3.09 ± 0.18 |
| QVIKNEVCAKMPNIELY [SSN2] | 2.35 ± 0.06 |
| QVLFQGLIYSFNEENGE [POP1] | 3.02 ± 0.18 |
| QVLLDEEYKQLVKDRKF [RPO21] | 2.82 ± 0.1 |
| QVLMDINTLNGGSSDTA [GAL11] | 3.1 ± 0.061 |
| QWSRIVLQNVFKLVSTP [MED1] | 1.34 ± 0.038 |
| RAFQKQPHIFNNPKVKT [RPS11A] | 2.21 ± 0.028 |
| RAFTKKVSSASAAASES [RPL16B] | 1.85 ± 0.054 |
| RAGQRGYHSRTSINHKI [RPL3] | 3.5 ± 0.12 |
| RAGQRTRFKAVVVVGDS [RPS2] | 2.29 ± 0.048 |
| RAHGRINKYESSPSHIE [RPL17A] | 3.17 ± 0.061 |
| RALRIETGNFSWASEGI [RPS8A] | 3.052 ± 0.026 |
| RAQEEVKRIQSVPLVIG [RPT3] | 3.21 ± 0.066 |
| RCGRRSFHVQKKTCSSC [RPL37A] | 2.39 ± 0.038 |
| RDHEKDTYRTLMEEIES [YIL149C/MLP2] | 3.26 ± 0.037 |
| RDMTYSAPIYVDIEYTR [RET1] | 1.81 ± 0.069 |
| RDQGNDSLNDDLNKENK [YIL149C/MLP2] | 3.32 ± 0.063 |
| RDVRDQAAGGLSIRLTN [RPN8] | 2.6 ± 0.071 |
| RDYSKEILGINLANEQP [SIR4] | 3.02 ± 0.036 |
| REIESLIAEETNNKKLL [SMC3] | 2.92 ± 0.15 |

| Sequence | protein stability index |
| --- | --- |
| RELARIKKYASVVRVLV [RPL3] | 1.2 ± 0.11 |
| RELEQIKPKIALQDKEI [SNF12] | 3.05 ± 0.13 |
| RELLNPRYTYHTIFSDV [YML031W/NDC1] | 2.93 ± 0.058 |
| RENNFRVASDTVHEMEE [SMC4] | 2.95 ± 0.27 |
| REQHIDTICQSIQEQIQ [SNF5] | 3.3 ± 0.068 |
| RFEKAVKHVFGKTIVVK [SMC3] | 3.5 ± 0.16 |
| RFKNSVKWYHFDHNDKK [PRE7] | 2.62 ± 0.043 |
| RFKVVKVSGVSLLALWK [RPS23A] | 1.81 ± 0.14 |
| RFQKCFPPGVIGIDEGS [RPC40] | 2.43 ± 0.18 |
| RFVIWTEAAFTKLDQVW [RPL4A] | 2.39 ± 0.13 |
| RGFFDILSLATEGCIGL [MCD1] | 2.7 ± 0.063 |
| RGKKGLKKKVVDPFTRK [RPS1B] | 3.27 ± 0.088 |
| RGNIKVMFATNRPNTLD [RPT1] | 2.98 ± 0.085 |
| RGRGRGRGRGRGRPPKA [SNF2] | 3.27 ± 0.06 |
| RGRPPKARNGLDYVRTP [SNF2] | 3.09 ± 0.074 |
| RGVDAGKGNTFEKVGSH [RPN14] | 3.33 ± 0.12 |
| RHLVNRGREEAASFKKL [PRE10] | 2.85 ± 0.089 |
| RHSGKVYPITLSTDATS [UBP6] | 2.02 ± 0.045 |
| RIHAKNFEAALFAKSSS [GAL11] | 2.56 ± 0.047 |
| RIKITANNNMNDELVEL [GRR1] | 2.71 ± 0.041 |
| RIMSTRCMMAAQYFYSG [DIS3] | 1.77 ± 0.04 |
| RIQLMNDFTTKLINIKK [MED1] | 2.97 ± 0.086 |
| RIVGSELIQKYLGDGPR [RPT2] | 3.11 ± 0.13 |
| RIYDREPTVRIQAVFCL [YCG1] | 2.39 ± 0.1 |
| RKINLFYLYMLVQKFGG [SWI1] | 1.08 ± 0.072 |
| RKLAVERAGHLLCDKAQ [PRE5] | 3.37 ± 0.14 |

| Sequence | protein stability index |
| --- | --- |
| RKNFKMGPLYQNFAEFM [IRR1] | 1.67 ± 0.038 |
| RKQIDETQVLVSTPEKW [BRR2] | 2.77 ± 0.028 |
| RKRHQRALKVRNAQAQR [RPS6A] | 2.96 ± 0.13 |
| RKWVIFITKHLPLLILE [NUT1] | 1.2 ± 0.03 |
| RLAEVNLKDLNNVKQMV [RPO21] | 3.08 ± 0.18 |
| RLDSYKVIEQPITSETA [RPL25] | 2.5 ± 0.067 |
| RLELPVDFQNDLKDILE [BRR2] | 2.81 ± 0.052 |
| RLERRINLTKVTQKDIC [CSI1] | 3.29 ± 0.12 |
| RLGDLGVIDDSFDVAIS [SMC4] | 1.98 ± 0.067 |
| RLGSKKLVEIIWNDVVY [YJL039C/NUP192] | 3.35 ± 0.08 |
| RLKDVEWVKLHRLLQRA [RMP1] | 3.02 ± 0.079 |
| RLKEKGSRVLIFSQMSR [ISW2] | 2.06 ± 0.057 |
| RLLSALGPRGVSITPGK [SRP21] | 2.93 ± 0.054 |
| RLNNVFVIGEQGKPYIS [RPS4A] | 2.12 ± 0.057 |
| RLPHQFRPIEIFTDFLP [RRP42] | 2.21 ± 0.066 |
| RLPVSEDTNTKPLFDFG [YOR098C/NUP1] | 3.08 ± 0.13 |
| RLTFKPWVVYLQILAML [YMR129W/POM152] | 1.05 ± 0.049 |
| RLTKQAFDWVLSNIEAQ [RPO21] | 2.8 ± 0.088 |
| RLYVKGKHLSYQRSKRV [RPL33A] | 2.46 ± 0.065 |
| RMAKYLNNTHVISSGPL [RPC53] | 2.47 ± 0.069 |
| RMERIKDHLLLEEEFVS [RPT2] | 2.23 ± 0.1 |
| RMLLNLCKSATTKMWPT [BRR2] | 1.99 ± 0.069 |
| RMLSSILDINVSSSKNK [SWP82] | 2.61 ± 0.032 |
| RNDSTVNDSVISAPSME [BRN1] | 2.96 ± 0.061 |
